These results are taken from patent US11207423B2, “Nanocarriers having surface conjugated peptides and uses thereof for sustained local release of drugs” (Northwestern University, priority 2016, dated 2021).

Data set [1] is described as follows: Rabbit eye clearance of Cy7-tagged nanoparticles by in vivo imaging (IVIS). The method, then: FIG. 8. Slowed rabbit eye clearance in vivo with Cy7-tagged 3R-peptide CDEX conjugate. 20 μl of anchor peptide amino-PEG8-RRYRL-amide (SEQ ID NO:5) conjugate to CDEX (2.5 mg/ml) along with conjugated 0.05 moles/particle Cy7-amine was injected into rabbit eyes on day one. Left eye 14 peptides/particle, right eye 21 peptides/particle.
FIG. 10. In vivo charge and zeta potential-dependent loss of NP from rabbit vitreous expressed as a percentage of the first measured photon flux at day 10 post-injection (taken as day 0). Volume of injection: 25 μl; nanocarrier concentration: 3 mg/ml. [Control: CDEX70-0: (n=2). CDEX70-2R; 64 peptides per particle by BCA (n=3) and CDEX70-3R; 61 peptides per particle by BCA (n=3)]. Half-lives: CDEX-0: 4 days; CDEX-2R: 7 days; CDEX70-3R: 13 days. 2R and 3R peptides are respectively (SEQ ID NO:4) and (SEQ ID NO:5) linked as carbamates of 3pyrrolidineCO-amido-PEG8-CO-peptide to Cy7-CDEX70. Cy7 amine is carbamate-linked at <1 mole/mole NP.
Thus BCA protein analysis of increasing peptide, with time in filtrate after 30 kDa filtration of a loaded carrier sample in buffer estimates the half-life for peptide release in buffer. For confirmation in actual vitreous humor (e.g., rabbit) at time points post injection LC-MS estimation of the peptide in vitreous extract follows precipitation of excess HA after adding 3 volumes of ethanol. […] Free intravitreal peptide is assayed after centrifugation via 30 kDa MWCO spin filter.
Retention of the NP in vitreous was tested in vivo in rabbits. 25 μl of CDEX70-2R-Cy7 (SEQ ID NO:4) 3 mg/ml or CDEX70-3R-Cy7 (SEQ ID NO:5) 3 mg/ml was administered by intravitreal injection and imaged via an IVIS scan after 4 weeks and nine weeks. Left: 4-week experiment. (See FIG. 9). The in vivo diffusion dependent loss of NP from rabbit vitreous expressed as percentage of the first measurement at day 10 post-injection (taken as day 0) is provided in FIG. 10. The determined half-lives of the NP is as follows: CDEX-0-Cy7: 4 days; CDEX-2R-Cy7: 7 days; CDEX70-3R-Cy7: 13 days. In vivo diffusion-dependent loss of NP from rabbit vitreous expressed as Flux of the first measurement at day 10 post-injection (taken as day 0) of CDEX70-2R-Cy7 at 4 different concentrations [Control: 0 mg/ml (n=6). 3 mg/ml (n=3).

For data set [2] the following is noted: human vitreous; cited from earlier work.
The test system of data set [3] is laser-induced choroidal neovascularization (CNV). The settings on record: single intravitreal injection of 1-ul 4 mg/ml 2 days before laser wounding; angiogenesis markers 14 days later. Here is the method:
FIG. 12B. […] A single injection of 1-ul 4 mg/ml peptide (SEQ ID NO:6) or control is injected into mouse vitreous 2 days before laser wounding of the retina. Angiogenesis markers are detected by antibody stain, 14 days later.

The nature of data set [4]: Particle size measurement (dynamic light scattering). Format: physicochemical. Here is the method:
(§1) Sample characteristics (particle size, polydispersity and zeta-potential) were measured by a dynamic light scattering method using Malvern Zeta Sizer Nano-S90 instrument according to the manufacturer recommendations. Briefly, hydrodynamic diameter (dh) and polydispersity index (PDI) of nanogel/microgels were obtained for 1 mg/mL aqueous solutions at 25° C. in triplicates after sonication for 30 min and centrifugation at 12,000 rpm. Zeta-potential of the samples was measured for the same solutions in standard 1 cm-cuvettesusing zeta-potential option in the company's software. Average of five measurements±SD was registered.
(§2) Peptide concentration was estimated by BCA (Pierce) protein assay against a standard curve of free peptide. Zeta potential and size was measured on non-rhodamine product using electrophoretic light scattering and dynamic light scattering, respectively (Zetasizer, Malvern). The Z averaged particle size is 15 nm and the full width at half maximum of the distribution peak is 24 nm. Zeta potentials for 1-Arg, 2-Arg, 3-Arg and 4-Arg peptide conjugates were 0.07 mV, 2.2 mV, 4.6 mV and 9.2 mV respectively (Table 2).

Data set [5] in a line: Zeta potential measurement (electrophoretic light scattering). Format: physicochemical. Here is the method: as §1, §2

Ends that are not written are not given here.

Regarding “Cy7-tagged 3R-peptide CDEX conjugate: Anchor peptide amino-PEG8-RRYRL-amide (SEQ ID NO:5) conjugated to CDEX with 0.05 moles/particle Cy7-amine; 14 or 21 peptides/particle (RRYRL-NH2; not fully specified (N-terminus); printed as amino-PEG8-RRYRL-amide; also: Cy7-amine on CDEX particle)”, the fluorescence lost in data set [1] (rabbit left eye, 14 peptides/particle, 20 μl of 2.5 mg/ml) is over 90%. In addition, the “residence in eye” value in data set [1] (rabbit right eye, 21 peptides/particle, 20 μl of 2.5 mg/ml) was “longer residence of conjugate in eye”.

With “Ranibizumab: a VEGF inhibitor for treatment of advanced AMD”, the half-life in vitreous entry in data set [2] was “approximately 9 days”.

Consider “adipic-Sar-Tyr-Asn-Leu-Tyr-Arg-Val-Arg-Ser-NH2 [SEQ ID NO:6]”, for which, in data set [3], the retinal protective activity entry is given as “reduction of laser-induced choroidal neovascularization (CNV)”.

“CDEX-3R-Cy7: Cy7-CDEX70 carbamate-linked to 3-pyrrolidine-CONH-PEG(8)-CO-Arg-Arg-Tyr-Arg-Leu-NH2 (SEQ ID NO:5) (RRYRL-NH2; not fully specified (N-terminus); printed as 3-pyrrolidine-CONH-PEG(8)-CO-Arg-Arg-Tyr-Arg-Leu-NH2; also: carbamate-linked to Cy7-CDEX70 nanocarrier)”: the Particle size in data set [4] was determined as 81.69 ± 7.44 nm. In data set [5], the Zeta potential was 6.34 ± 1.28 mV. In data set [1] (intravitreal 25 μl, 3 mg/ml, photon flux relative to day 10 post-injection (taken as day 0)), the “half-life of NP in rabbit vitreous” value came out at 13 days. For the same substance, the “retention in eye compared with 2R peptide conjugate at similar peptide loading” value in data set [1] (rabbit, IVIS scans after 4 and 9 weeks) is reported as “retained longer in the eye”.

For the substance “CDEX-AP3: CDI-activated CDEX nanogel carbamate-linked to AP3, amino-PEG(12)-CO-Arg-Arg-Ser-Arg-amide (SEQ ID NO:19) (RRSR-NH2; not fully specified (N-terminus); printed as amino-PEG(12)-CO-Arg-Arg-Ser-Arg-amide; also: carbamate-linked to CDI-activated CDEX nanogel)”, the Particle size in data set [4] is on record as 124 ± 1.4 nm. In data set [5], this substance came in with a Zeta potential of 4.58 mV.
